# Source: patent US20240018502
# T1: quenched fluorescence peptidic substrate containing SKGR/SL (P4-P2' of the PAR-2 activation cleavage site, Ser 33 to Leu 38)
# T1 chain: SKGRSL
# How the values were obtained:
# [1] = biological target: human complement protein C3
# [2] = biological target: complement protein C3 of cynomolgus monkey plasma
# [3] = biological target: T1, quenched fluorescence peptidic …
Protein,"ED50 80% human plasma (60 min, nM), C3 cleavage [1] [nM]","ED50 80% cynomolgus plasma (nM), C3 cleavage, C3 ELISA [2] [nM]",SKGR/SL kcat/Km [3] [M⁻¹ s⁻¹],ED50 of cleavage of human C3 [1]
I41R/F97T/Ins97aE/T98G/F99L/C122S/G151N/Q175L/Q192E (protein) VVGGTDADEGEWPWQVSLHALGQGHRCGASLISPNWLVSAAHCYIDDRGFRYSDPTQWTAFLGLHDQSQRSAPGVQERRLKRIISHPFFNDTEGLDYDIALLELEKPAEYSSMVRPISLPDASHVFPAGKAIWVTGWGHTQYGGTNALILQKGEIRVINQTTCENLLPQLITPRMMCVGFLSGGVDSCEGDSGGPLSSVEADGRIFQAGVVSWGDGCAQRNKPGVYTRLPLFRDWIKENTGV,835,2200,< 100,
Q38H/I41A/D60bV/F60eR/Y60gW/D96I/F97Y/ins97aN/T98G/F99L/C122S/G151N/Q175L/Q192D (protein) VVGGTDADEGEWPWQVSLHALGHGHACGASLISPNWLVSAAHCYIDVRGRRWSDPTQWTAFLGLHDQSQRSAPGVQERRLKRIISHPFFNIYNGLDYDIALLELEKPAEYSSMVRPISLPDASHVFPAGKAIWVTGWGHTQYGGTNALILQKGEIRVINQTTCENLLPQLITPRMMCVGFLSGGVDSCDGDSGGPLSSVEADGRIFQAGVVSWGDGCAQRNKPGVYTRLPLFRDWIKENTGV,27,37,2320,
Q38H/I41S/D60bT/F60eS/Y60gW/D96Y/F97E/ins97aV/T98G/F99L/C122S/G151H/Q175L/Q192D (protein) VVGGTDADEGEWPWQVSLHALGHGHSCGASLISPNWLVSAAHCYIDTRGSRWSDPTQWTAFLGLHDQSQRSAPGVQERRLKRIISHPFFNYEVGLDYDIALLELEKPAEYSSMVRPISLPDASHVFPAGKAIWVTGWGHTQYGGTHALILQKGEIRVINQTTCENLLPQLITPRMMCVGFLSGGVDSCDGDSGGPLSSVEADGRIFQAGVVSWGDGCAQRNKPGVYTRLPLFRDWIKENTGV,38,133,865,
Q38H/I41S/D60bT/F60eS/Y60gW/F97D/ins97aV/T98P/F99L/C122S/G151H/Q175L/Q192D (protein) VVGGTDADEGEWPWQVSLHALGHGHSCGASLISPNWLVSAAHCYIDTRGSRWSDPTQWTAFLGLHDQSQRSAPGVQERRLKRIISHPFFNDDVPLDYDIALLELEKPAEYSSMVRPISLPDASHVFPAGKAIWVTGWGHTQYGGTHALILQKGEIRVINQTTCENLLPQLITPRMMCVGFLSGGVDSCDGDSGGPLSSVEADGRIFQAGVVSWGDGCAQRNKPGVYTRLPLFRDWIKENTGV,50,152,1730,
Q38H/I41A/D60bT/F60eK/Y60gW/F97T/ins97aE/T98G/F99L/C122S/G151N/Q175L/Q192D (protein) VVGGTDADEGEWPWQVSLHALGHGHACGASLISPNWLVSAAHCYIDTRGKRWSDPTQWTAFLGLHDQSQRSAPGVQERRLKRIISHPFFNDTEGLDYDIALLELEKPAEYSSMVRPISLPDASHVFPAGKAIWVTGWGHTQYGGTNALILQKGEIRVINQTTCENLLPQLITPRMMCVGFLSGGVDSCDGDSGGPLSSVEADGRIFQAGVVSWGDGCAQRNKPGVYTRLPLFRDWIKENTGV,65,195,245,
Q38H/I41A/D60bV/F60eR/Y60gW/F97T/ins97aE/T98G/F99L/C122S/G151N/Q175L/Q192D (protein) VVGGTDADEGEWPWQVSLHALGHGHACGASLISPNWLVSAAHCYIDVRGRRWSDPTQWTAFLGLHDQSQRSAPGVQERRLKRIISHPFFNDTEGLDYDIALLELEKPAEYSSMVRPISLPDASHVFPAGKAIWVTGWGHTQYGGTNALILQKGEIRVINQTTCENLLPQLITPRMMCVGFLSGGVDSCDGDSGGPLSSVEADGRIFQAGVVSWGDGCAQRNKPGVYTRLPLFRDWIKENTGV,52,101,925,
Q38H/I41A/D60bT/F60eK/Y60gW/F97T/ins97aE/T98G/F99L/C122S/G151H/Q175L/Q192D (protein) VVGGTDADEGEWPWQVSLHALGHGHACGASLISPNWLVSAAHCYIDTRGKRWSDPTQWTAFLGLHDQSQRSAPGVQERRLKRIISHPFFNDTEGLDYDIALLELEKPAEYSSMVRPISLPDASHVFPAGKAIWVTGWGHTQYGGTHALILQKGEIRVINQTTCENLLPQLITPRMMCVGFLSGGVDSCDGDSGGPLSSVEADGRIFQAGVVSWGDGCAQRNKPGVYTRLPLFRDWIKENTGV,38,136,742,
Q38H/I41S/D60bT/F60eS/Y60gW/F97D/ins97aV/T98P/F99L/C122S/G151N/Q175L/Q192D (protein) VVGGTDADEGEWPWQVSLHALGHGHSCGASLISPNWLVSAAHCYIDTRGSRWSDPTQWTAFLGLHDQSQRSAPGVQERRLKRIISHPFFNDDVPLDYDIALLELEKPAEYSSMVRPISLPDASHVFPAGKAIWVTGWGHTQYGGTNALILQKGEIRVINQTTCENLLPQLITPRMMCVGFLSGGVDSCDGDSGGPLSSVEADGRIFQAGVVSWGDGCAQRNKPGVYTRLPLFRDWIKENTGV,41,118,1730,
Q38H/I41A/D60bV/F60eR/Y60gW/D96P/F97W/ins97aN/T98G/F99L/C122S/G151N/Q175L/Q192E (protein) VVGGTDADEGEWPWQVSLHALGHGHACGASLISPNWLVSAAHCYIDVRGRRWSDPTQWTAFLGLHDQSQRSAPGVQERRLKRIISHPFFNPWNGLDYDIALLELEKPAEYSSMVRPISLPDASHVFPAGKAIWVTGWGHTQYGGTNALILQKGEIRVINQTTCENLLPQLITPRMMCVGFLSGGVDSCEGDSGGPLSSVEADGRIFQAGVVSWGDGCAQRNKPGVYTRLPLFRDWIKENTGV,47,73,1620,
Q38H/I41S/D60bT/F60eS/Y60gW/F97D/ins97aV/T98P/F99L/C122S/G151H/Q175L/Q192E (protein) VVGGTDADEGEWPWQVSLHALGHGHSCGASLISPNWLVSAAHCYIDTRGSRWSDPTQWTAFLGLHDQSQRSAPGVQERRLKRIISHPFFNDDVPLDYDIALLELEKPAEYSSMVRPISLPDASHVFPAGKAIWVTGWGHTQYGGTHALILQKGEIRVINQTTCENLLPQLITPRMMCVGFLSGGVDSCEGDSGGPLSSVEADGRIFQAGVVSWGDGCAQRNKPGVYTRLPLFRDWIKENTGV,50,76,959,
Q38H/I41S/D60bT/F60eS/Y60gW/D96L/F97D/ins97aG/T98N/F99L/C122S/G151H/Q175L/Q192E (protein) VVGGTDADEGEWPWQVSLHALGHGHSCGASLISPNWLVSAAHCYIDTRGSRWSDPTQWTAFLGLHDQSQRSAPGVQERRLKRIISHPFFNLDGNLDYDIALLELEKPAEYSSMVRPISLPDASHVFPAGKAIWVTGWGHTQYGGTHALILQKGEIRVINQTTCENLLPQLITPRMMCVGFLSGGVDSCEGDSGGPLSSVEADGRIFQAGVVSWGDGCAQRNKPGVYTRLPLFRDWIKENTGV,39,70,1300,
Q38H/I41A/D60bV/F60eR/Y60gW/F97T/ins97aE/T98G/F99L/C122S/G151H/Q175L/Q192D (protein) VVGGTDADEGEWPWQVSLHALGHGHACGASLISPNWLVSAAHCYIDVRGRRWSDPTQWTAFLGLHDQSQRSAPGVQERRLKRIISHPFFNDTEGLDYDIALLELEKPAEYSSMVRPISLPDASHVFPAGKAIWVTGWGHTQYGGTHALILQKGEIRVINQTTCENLLPQLITPRMMCVGFLSGGVDSCDGDSGGPLSSVEADGRIFQAGVVSWGDGCAQRNKPGVYTRLPLFRDWIKENTGV,32,133,1360,
Q38H/I41A/D60bV/F60eR/Y60gW/D96I/F97N/T98G/F99L/C122S/G151N/Q175L/Q192D (protein) VVGGTDADEGEWPWQVSLHALGHGHACGASLISPNWLVSAAHCYIDVRGRRWSDPTQWTAFLGLHDQSQRSAPGVQERRLKRIISHPFFNINGLDYDIALLELEKPAEYSSMVRPISLPDASHVFPAGKAIWVTGWGHTQYGGTNALILQKGEIRVINQTTCENLLPQLITPRMMCVGFLSGGVDSCDGDSGGPLSSVEADGRIFQAGVVSWGDGCAQRNKPGVYTRLPLFRDWIKENTGV,24,58,3560,
Wild-type MTSP-1 protease domain with C122S (protein) VVGGTDADEGEWPWQVSLHALGQGHICGASLISPNWLVSAAHCYIDDRGFRYSDPTQWTAFLGLHDQSQRSAPGVQERRLKRIISHPFFNDFTFDYDIALLELEKPAEYSSMVRPISLPDASHVFPAGKAIWVTGWGHTQYGGTGALILQKGEIRVINQTTCENLLPQQITPRMMCVGFLSGGVDSCQGDSGGPLSSVEADGRIFQAGVVSWGDGCAQRNKPGVYTRLPLFRDWIKENTGV,3500,2800,200000,compared to 11 nM for the wild-type protease domain of SEQ ID NO:4
Q38H/I41S/D60bT/F60eS/Y60gW/D96K/F97D/ins97aA/T98P/F99L/C122S/G151H/Q175L/Q192D (protein) VVGGTDADEGEWPWQVSLHALGHGHSCGASLISPNWLVSAAHCYIDTRGSRWSDPTQWTAFLGLHDQSQRSAPGVQERRLKRIISHPFFNKDAPLDYDIALLELEKPAEYSSMVRPISLPDASHVFPAGKAIWVTGWGHTQYGGTHALILQKGEIRVINQTTCENLLPQLITPRMMCVGFLSGGVDSCDGDSGGPLSSVEADGRIFQAGVVSWGDGCAQRNKPGVYTRLPLFRDWIKENTGV,34,85,4030,
